We go through 18 sequences from the DeepSol protein solubility set.

This data set is described as follows: soluble on expression in E. coli; label from the status in PepcDB or PDB records.
Take “MLSTGTKSLDSLLGGGFAPGVLTQVYGPYASGKTTLALQTGLLSGKKVAYVDTEGGFSPERLVQMAETRGLNPEEALSRFILFTPSDFKEQRRVIGSLKKTVDSNFALVVVDSITAHYRAEENRSGLIAELSRQLQVLLWIARKHNIPVIVINQVHFDSRTEMTKPVAEQTLGYRCKDILRLDKLPKPGLRVAVLERHRFRPEGLMAYFRITERGIEDVE”: the “soluble on expression in E. coli” value is “soluble”.
As for “MGSDKIHHHHHHMTVAKGSIHGIIGENGAGKSTLMSILYGFYQADSGEIKIGGQSTVIKDSQAAISSGIGMVHQHFMLVENFTVLENVMLGAEGGALLAKGTAAARASLKQLETDYGLDVDPDAVVEELPVGRQQRVEILKALYRGADILILDEPTGVLTPAEADHLFKILRVLRDQGKTVILITHKLREIMAITDTVSVMRRGEIVATRKTVETSVEELAELMVGRRVLLRVDKQPAQPRDVLLSVRNLTVKDSRGVIMVDDVSFDVREGEIVGIAGVAGNGQSELLEAITGIRKPMSGEILIAGKLVTGYDPARLRDLGLAHIPEDRHHMGLVLPFEESQNAILGYHRDERYGKGMFLDPKAIRAAAEVEIAKYDIRPPNPRLKTANFSGGNQQKIVVAREIERDPNVLIIGQPTRGVDIGAIEFIHRRIVETRDKGKALLLVSVELDEIRSLSDRILVMFAGKVVGEKTADADEQTLGLMMAGIAA”, the “soluble on expression in E. coli” value is “not soluble”.
With “MPNASQVYRSTRSSSPKTISFEEAIIQGLATDGGLFIPPTIPQVDQATLFNDWSKLSFQDLAFAIMRLYIAQEEIPDADLKDLIKRSYSTFRSDEVTPLVQNVTGDKENLHILELFHGPTYAFKDVALQFVGNLFEYFLQRTNANLPEGEKKQITVVGATSGDTGSAAIYGLRGKKDVSVFILYPTGRISPIQEEQMTTVPDENVQTLSVTGTFDNCQDIVKAIFGDKEFNSKHNVGAVNSINWARILAQMTYYFYSFFQATNGKDSKKVKFVVPSGNFGDILAGYFAKKMGLPIEKLAIATNENDILDRFLKSGLYERSDKVAATLSPAMDILISSNFERLLWYLAREYLANGDDLKAGEIVNNWFQELKTNGKFQVDKSIIEGASKDFTSERVSNEETSETIKKIYESSVNPKHYILDPHTAVGVCATERLIAKDNDKSIQYISLSTAHPAKFADAVNNALSGFSNYSFEKDVLPEELKKLSTLKKKLKFIERADVELVKNAIEEELAKMKL”, the “soluble on expression in E. coli” value was “soluble”.
To “MDDTLFQLKFTAKQLEKLAKKAEKDSKAEQAKVKKALQQKNVECARVYAENAIRKKNEGVNWLRMASRVDAVASKVQTAVTMKGVTKNMAQVTKALDKALSAMDLQKVSAVMDRFEQQVQNLDVHTSVMEDSVSSATTLTTPQEQVDSLIVQIAEENGLEVLDQLSQLPEGASAVGESSVRSQEDQLSRRLAALRN” belongs “not soluble”; to “MSLTGFLLLHGTIVTVDRERRIIEDGALAINDDRIVDIGTVDELEPRHGGKEVIDCRGKLIIPGLIDAHGHAGHALLRSIAADTNAMWMKIITPTYYHYVTRDYWYADGLISGIERLRAGVTTGASIITSMPRADDPVFAINHARAYSELGLREIICVGPSGLPWPHPVTRWESGQPERRDVSFDEMMDGSEAVIETLHGSADGRISVFLTPFTIVPSVEPSNASSPDQAVKLTEGDRMQARRVREMARKRGVRLHSDAFAGQIRMAFQDKENALLGPDIHLQHCWGISHDEIDILAETGTRVTHAPPGRSTPIMEMMSKSIRVAITTDGAAPSRHFDMLQTARLAQFTQHLLHNHDRYLLPPGKIFEMITIDAAHAIGMEDEIGSLEIGKKADVVIIDMRKPHLMPMWMPVHRLVHQALGSDVDTVFVDGKLLMDNGRVLTSDVDAAITFGQQEAMALAERAGLKVHMHDPGWGRLLRTFDEQVYPPRPPKDASYRVTDHESGQDHEGHHHHHH”, “soluble”; to “MLYPNERKSSVHAIPYQDQLKQVQSAVDEFQKANGGLLPIQTKDMSTPLYQKYPIDFNRLAPRYIAEPPSTAFESGGDYQYVLVDVENDPTVKLIDLKMAEKIRDVKLRIQMYRQEHQYPPYKDVLSRDLFTLDEKKLGDGSSLTVTSPISGNSLPLMIDGDGEIYADYRTELASCLKKSKKTFKPGTEIQDMIWHETPFVPAFSVKYTVNDKQEPVFLENDMKKELEHHHHHH”, “soluble”.
Regarding “RPLTGLVMTGGGARAAYQVGALSAIMAILDPKARPGYPNPFPIICGTSAGAVNAAALACRADRPHLAVRRMRRLWASLETGMVYRADAPGLIRTGVRWLGLLSLGWMYAGLTRKRPQSLLDSSPLADLLGRVMDFDRMRHNLARGKLSALAITASGYTSGEHLTFYQSDRPIDPWHRFLRRAVPSAIGIDHIMASSAIPFVFPARPVRVHGQVEWCGDGSMRQLAPISPAIHLGATRVLVIGTGFHDDTHPEKREEDPPYPSLAQVGGHALSSIFLDGLSMDVERLERTNFLLSRGGQEAEPEFALRRVDVLALTPSQSLDQLALEHLDDMPSEARTLFRV”, the “soluble on expression in E. coli” value is “not soluble”.
Consider “MGHHHHHHSHMGTNDEDELSLGLPTELKRKKEQLDGGHRPSKETQSAAGLTLPLNSDQTFHLMSNLAGDVITAAVTAAIKDQLEGVQQALSQAAPIPEEDTDTEEGDDFELLDQSELDQIESELGLTQDQEAEAQQNKKSSGFLSNLLGGH”, for which the “soluble on expression in E. coli” value is “soluble”.
As to “MSLKQFSPDKMLNTPFGITAAQLRKMGKTTILTDLDNTLLAWDQLDATDEVINWFTILKEEGIKVMIFSNNNEERVARVAKAIDVPYLARAKKPLGANFRWALKEMDATPEETVMIGDQIMTDIFGGNRQKLTTIFVRPVKQTDGMATKLNRMMESVILKRLAKKNQIKWEESEGHHHHHH”, the “soluble on expression in E. coli” value is on record as “soluble”.
To “MGSDKIHHHHHHMTDEGALFYEHSRRALSEIQNAAALLDQRKINATGRLRMSVPVLFGQLFAAPLMVKFAQQHADLQLEISFNDRNVDLIEEGFDLCIRIGALPDTTQLVAKPIGEHRMLLCASPDYLNKAGPVEHIEDLDQHATIADPHFGQMQKWRLQKENDEPLFIKPKAKLLLNDLQAIKNAALAGAGIAWLPDWLIQNELQDGKLVQVLDAMSSTAFPIHLVWPTLPFMPLKTRLAIDYLAQHLPPELNK” belongs “not soluble”.
Turning to “MAAIGVHLGCTSACVAVYKDGRAGVVANDAGDRVTPAVVAYSENEEIVGLAAKQSRIRNISNTVMKVKQILGRSSSDPQAQKYIAESKCLVIEKNGKLRYEIDTGEETKFVNPEDVARLIFSKMKETAHSVLGSDANDVVITVPFDFGEKQKNALGEAARAAGFNVLRLIHEPSAALLAYGIGQDSPTGKSNILVFKLGGTSLSLSVMEVNSGIYRVLSTNTDDNIGGAHFTETLAQYLASEFQRSFKHDVRGNARAMMKLTNSAEVAKHSLSTLGSANCFLDSLYEGQDFDCNVSRARFELLCSPLFNKCIEAIRGLLDQNGFTADDINKVVLCGGSSRIPKLQQLIKDLFPAVELLNSIPPDEVIPIGAAIEAGILIGKENLLVEDSLMIECSARDILVKGVDESGASRFTVLFPSGTPLPARRQHTLQAPGSISSVCLELYESDGKNSAKEETKFAQVVLQDLDKKENGLRDILAVLTMKRDGSLHVTCTDQETGKCEAISIEIAS”, the “soluble on expression in E. coli” value is reported as “not soluble”.
Consider “MAPDRSGGPAAAELIAGLGLERHPEGGWYRETYRAAGTIPGTLLPGQVGGERSFSTAIYFLLERGDISALHRIRSDELWHFHAGAPLIVHVITPAGGSYALTLGSDPASGETFQAVVPAGCWFGAETTGDYSLVGCTVAPGFDFADFEMGSRADLLGRFPTHAGIIRRLTRDGDLEHHHHHH”, for which the “soluble on expression in E. coli” value is on record as “not soluble”.
Consider “QAMTKTLRTPEHVYLCQRLRQARLDAGLTQADLAERLDKPQSFVAKVETRERRLDVIEFAKWMAACEGLDVVSEIVATIAEGRAQA”, for which the “soluble on expression in E. coli” value was “soluble”.
With “MGSDKIHHHHHHMLNETKELLKDYYGIDDDTFKLSQEIMEEIKDKFEEIKEIREYNQYKVLKAMQESKLSDMHFNWTTGYGYNDIGREKIEEIYSKVFNTEDALVRPIIVNGTHALTLCIQGIVRPGDEILSVTGRPYDTLEGVIGIREEKGSLKEYGVTYDDVDFLEDGNLDLEGIKSKINDRTKLVMIQRSKGYSWRKSLSISDIKEAIEVIKSVKPEAIVMVDNCYGEFLDTKEPTDVGADVMAGSLIKNPGGGLALTGGYIAGRKDLIELISYRMTSPGIGKECGLTFGTTRNVLQGFFLAPYIVSQAVMGAIFCSRAFEKLGYDVLPKYDDLRSDIIQCIRLNNADEVISFCEGIQEAAPVDSYVKPVPWDMPGYESEVIMAAGAFIQGSSIELSADAPIRPPYNVYFQGGLTFDHSKMGTLKAIEFIKKLKK” the entry was “not soluble”.
As for “MGSDKIHHHHHHNENPDKPTDDVNYNMNEPRLASTLRGGLIIEGNVEQRLKPLQIDFYSQMTVDGGGWGTKNYIQDDEWNNLVWEEYLKQIASINIVIRSLTEKDKDAYANTIAFARIWRVYVHTLAADKFGPMPFPAYEIVEANPPYKSLKDIYDEYFRELDAAINGFNDSAQPIFSDAGIDLIYKNDVSKWKRFANSLRLRLAVRLTEVDQEKCIAEANAAISSPAGLISDKADNAYMPPKADGSWGQDYNYTMFQITWSGPICMSKSVEKLVTNIGGVAWPQGVVNQTSGVAVSSVHPEKVDPRAPKIFQPGIENGDWKGLVYGPKAEEANTGIYQSKQCAELGFIIKDGYPYKSRPYDLFLSEEVHFLKAELYARGFIAGDAKSEYEAGVRASFATWGVTSEVDDYLTSTEKNEAGTSARYDDQQGAGNTALEKIITQKYIAGIPDLAQEGWNDKRRLNLPRLDVAVYRDQAVYNNNDKDILKSANFIKRMRYPTKESLINATEYEKGKSMLGGKGDIVSTPLWWDKNSNYCTSSK”, the “soluble on expression in E. coli” value is recorded as “not soluble”.
For the sequence “QVTLKESGPTLVKPTQTLTLTCTFSGFSLRTSRVGVSWIRQPPGKALEWLAHIYWDDDKRYNPSLKSRLTISKDTSKNQVVLTMTNMDPVDTATYYCARRGFYGRKYEVNHFDYWGQGTTVTVSSASTKGPSVFPLAPSSKSTSGGTAALGCLVKDYFPEPVTVSWNSGALTSGVHTFPAVLQSSGLYSLSSVVTVPSSSLGTQTYICNVNHKPSNTKVDKKVEPKSCG”, the “soluble on expression in E. coli” value is on record as “soluble”.
For “MDIPIPTRQLFINGDWKAPVLNKRIPVINPATQNIIGDIPAATKEDVDVAVAAAKTALTRNKGADWATASGAVRARYLRAIAAKVTEKKPELAKLESIDCGKPLDEAAWDIDDVAGCFEYYADLAEKLDARQKAPVSLPMDTFKSHVLREPIGVVGLITPWNYPMLMATWKVAPALAAGCAAILKPSELASLTCLELGEICKEVGLPPGVLNILTGLGPEAGAPLATHPDVDKVAFTGSSATGSKIMTAAAQLVKPVSLELGGKSPLVVFEDVDLDKAAEWAIFGCFWTNGQICSATSRLILHESIATEFLNRIVKWIKNIKISDPLEEGCRLGPVVSEGQYEKILKFVSNAKSEGATILTGGSRPEHLKKGFFIEPTIITDVTTNMQIWREEVFGPVLCVKTFSTEEEAIDLANDTVYGLGAAVISNDLERCERVTKAFKAGIVWVNCSQPCFTQAPWGGVKRSGFGRELGEWGLDNYLSVKQVTQYISEEPWGWYQPPAKL”, the “soluble on expression in E. coli” value is reported as “soluble”.
To “MTDFLEIRPLTKEAFTPFGDVIETTPSSMRHINGGQTERHHALSAPEAAGEGARIILNIFRGQPRVFPHKIDMMERHPLGSQSFSPLSGRPFLVVVAQDDGGRPARPQVFLARGDQGVNYRRNVWHYPLMPLQAVSDFLVADREGPGNNLEEYFFDEPFMIAEPSLAAALEHHHHHH” belongs “soluble”.
